Where “and” joins values, the source holds several entries; their conditions need not be identical. Identical values can stand only once.
Key:
[1] = target: BASS-NoC single mutant with Cys at residue 671 (Drosophila) (UniProt P46863); assay: SEC + other: sucrose density gradient centrifugation
[2] = target: BASS-NoC single mutant with Cys at residue 791 (Drosophila) (UniProt P46863); assay: as above
[3] = target: BASS-NoC double mutant with Cys at residues 671 and 788 (Drosophila) (UniProt P46863); assay: as above
[4] = target: BASS-NoC double mutant with Cys at residues 671 and 791 (Drosophila) (UniProt P46863); assay: as above
[5] = target: BASS-NoC single mutant with Cys at residue 788 (Drosophila) (UniProt P46863); assay: as above
native MS = target: the molecule itself; assay: native MS
SEC = target: the molecule itself; assay: SEC

“BASS-NoC single mutant with Cys at residue 671 (from UniProt P46863 631-920) (domain or fragment)” was tested, and the stoichiometry N [1] was 4.

Work on “BASS-NoC single mutant with Cys at residue 791 (from UniProt P46863 631-920) (domain or fragment)” yielded a stoichiometry N [2] of 4.

Work on “BASS-NoC double mutant with Cys at residues 671 and 788 (from UniProt P46863 631-920) (domain or fragment)” yielded a stoichiometry N [3] of 4.

Work on “BASS-NoC double mutant with Cys at residues 671 and 791 (from UniProt P46863 631-920) (domain or fragment)” yielded a stoichiometry N [4] of 4.

Work on “BASS-NoC single mutant with Cys at residue 788 (from UniProt P46863 631-920) (domain or fragment)” yielded a stoichiometry N [5] of 4.

B1: BASS (bipolar assembly) domain of kinesin-5, residues 631–920 (domain or fragment, Drosophila, UniProt P46863 631-920, looked up)
chain: EQMQQQQLLMSKEIQTNLQVIEENNQRHKAMLDSMQEKFATIIDSSLQSVEEHAKQMHKKLEQLGAMSLPDAEELQNLQEELANERALAQQEDALLESMMMQMEQIKNLRSKNSISMSVHLNKMEESRLTRNHRIDDIKSGIQDYQKLGIEASQSAQAELTSQMEAGMLCLDQGVANCSMLQVHMKNLNQKYEKETNENVGSVRVHHNQVEIICQESKQQLEAVQEKTEVNLEQMVDARQQLITEDRQRFIGHATVATDLVQESNRQFSEHAEHQRQQLQICEQELVRFQ
B1 was tested, and the “stoichiometry N” value (native MS) was 2 and 4.

B2: BASS 631–790 (domain or fragment, Drosophila, UniProt P46863 631-790, looked up)
chain: EQMQQQQLLMSKEIQTNLQVIEENNQRHKAMLDSMQEKFATIIDSSLQSVEEHAKQMHKKLEQLGAMSLPDAEELQNLQEELANERALAQQEDALLESMMMQMEQIKNLRSKNSISMSVHLNKMEESRLTRNHRIDDIKSGIQDYQKLGIEASQSAQAEL
In the case of B2, the “stoichiometry N” value (SEC) is reported as 4 and 2.

B3: BASS-core (BASS 631–835) (domain or fragment, Drosophila, UniProt P46863 631-835, looked up)
chain: EQMQQQQLLMSKEIQTNLQVIEENNQRHKAMLDSMQEKFATIIDSSLQSVEEHAKQMHKKLEQLGAMSLPDAEELQNLQEELANERALAQQEDALLESMMMQMEQIKNLRSKNSISMSVHLNKMEESRLTRNHRIDDIKSGIQDYQKLGIEASQSAQAELTSQMEAGMLCLDQGVANCSMLQVHMKNLNQKYEKETNENVGSVRV
B3 was tested, and the “stoichiometry N” value (SEC) was 4.

Reference: publication PMC3562449 (Nature Communications, 2013)
